According to patent US20250075191A1, “MODIFIED BIOLUMINESCENT ENZYMES” (Light Bio, Inc., priority 2023, published 2025):

Tests used:
[1] = test system: HEK293NT or HEK293 cell lines; experiment: Pathway luminescence in transfected mammalian cells in the presence of caffeic acid; assay type: cell-based; conditions: gene set expressing nnLuz_WT, mcitHispS, nnCPH, and NpgA
Description: In different sets of experiments, HEK293NT or HEK293 cell lines were seeded in 96-well plates (ibidi, ibiTreat μ-Plate 96 Well Black). Cells were transfected with a mixture of the five plasmids that encoded variants of nnLuz, and nnH3H, along with nnHispS or mcitHispS, nnCPH, and NpgA by PolyFect Transfection Reagent (QIAGEN) according to the manufacturer's protocol, using 2 μl PolyFect per well and a mixture of plasmids containing 44 ng of plasmid expressing nnLuz, and equivalent amounts of the other four plasmids according to their size. Transfected cells were grown in DMEM (PanEco) supplemented with 10% fetal bovine serum (HyClone), 4 mM L-glutamine, 10 U/ml penicillin and 10 µg/ml streptomycin, at 37° C. and 5% CO2. Twenty-four hours after transfection, the medium was changed to 25 μM or 100 μM caffeic acid solution (0.1% DMSO in DPBS) and luminescence was imaged for 23 minutes by IVIS Spectrum CT (PerkinElmer) at 37° C. every 9 seconds with open filter, binning of 16 and exposure of 5 seconds. The number of independent replicates is included in the figure's legends.

Pichia pastoris GS115 = experiment: Luminescence imaging of transformed yeast after addition of luciferin, hispidin or caffeic acid; assay type: cell-based
Description: Integration of plasmids into the genome of Pichia pastoris GS115 was targeted at the GAP promoter locus. Linearized plasmids were used for the transformation of electrically competent yeast cells. Colonies were selected using […] of G418 or 200 mg/ml of hygromycin or 50 mg/ml of zeocin. PCR-based screening of yeast colonies was done by heating up colonies in 10 μl of 20 mM NaOH at 90° C. for 7 min and then using 1 μl of the resulting solution for direct PCR. For luminescence imaging, yeast culture grown on plate was resuspended in 50 μL of 1M sorbitol. 5 μL of the suspension was then added in 3 replicates to YPD agar plates lacking antibiotics. […] Imaging was performed in Fusion Pulse (Vilber, France), with exposure of 0.1 or 5 sec every 3 or 5 min for 1.0-1.5 hours—for caffeic acid treatment, with exposure of 20 sec for 20 mins—for hispidin treatment, with exposure of 0.5 sec every 10 sec for 10 mins in case of luciferin treatment.
Processing of images was performed using FiJi ImageJ distribution (version 1.53t) 20 and custom Python scripts (Python version 3.8). For luminescence quantification mean values in the region of interest after background subtraction were used. Background subtraction was performed using the following formula: signal=signalraw−(backgroundmean−3*backgroundSD).

HEK293 cells = experiment: Luciferase luminescence by transient expression in HEK293 cells after luciferin addition; assay type: cell-based; conditions: living HEK293 cells, luciferin 740 μM final concentration
Description: Production of luminescence by nnLuz_v3 was measure in E. coli lysates by the above method, and in mammalian cells (HEK293 cells). The HEK293 cells were transfected using the FugeneHD transfection reagent (Promega) according to the manufacturer's instructions. Cells were grown overnight under CO2 at 37° C. in 96-well white assay plates. For luminescence measurements, media was removed and replaced with 100 μl of CO2 independent media (Life Technologies 18045) containing 10% FBS. 33 μl of luciferin was added to cells (740 μM final concentration). The luminescence was measured using a GloMax-Multi+luminometer (Promega).

[2] = Luciferase luminescence in E. coli lysates after luciferin addition; assay type: biochemical; conditions: 100 μM luciferin, maximal brightness
Excerpt: A library of amino acid substitutions was created applying mutagenesis to a gene encoding the luciferase derived from Neonothopanus nambi (SEQ ID NO: 8). pF4Ag shuttle vector (Promega) was used for gene expression in E. coli (T7 promoter-driven expression) and mammalian cells (CMV promoter-driven expression). The pF4Ag vector backbone introduces a C-terminal 3×-FLAG-HiBiT tag. Site-directed mutagenesis was used to substitute consensus amino acids at selected position in the luciferase sequence. Gene expression was performed in the E. coli strain KRX (Promega), which enables rhamnose-inducible expression of T7 RNA polymerase.
Colonies (in triplicate) were used to inoculate LB broth containing ampicillin ([…]) and cultures grown overnight in 96-well microtiter plates (20 hours, 37° C.). Cultures were diluted into fresh LB containing 0.1% rhamnose and ampicillin and grown for 3 hours at 37° C. 50 μl of the induced culture was lysed for 5 minutes at ambient temperature with a reagent consisting of 25 mM HEPES pH 7.5 and 0.3×PLB (E1941 Promega). 50 μl of lysate was combined with 50 μl luciferin (100 μM) in the lysis buffer and samples were measured for total luminescence using a GloMax®-Multi+luminometer. (Promega).

[3] = Enzyme thermostability in cleared E. coli lysates incubated at 22° C.; assay type: biochemical; conditions: then 100 μM luciferin
Description: To assess the effect on enzyme thermostability by the amino acid substitutions, lysates of transformed E. coli were prepared by sonication and cleared by centrifugation. The cleared lysates were diluted 1:100 into Tris-buffered saline with 0.01% BSA and 0.1% n-dodecyl β-D-maltoside. 100 μl of each diluted lysate were added to a 96-well PCR plate. Samples were incubated at 22° C. and at various time points aliquots were placed on ice. When all of the samples were processed, 50 μl of each was combined with 50 μl of 100 μM luciferin in Tris-buffered saline with 0.01% BSA and 0.1% n-dodecyl β-D-maltoside. Samples were immediately placed in a GloMax®-Multi+luminometer (Promega) to measure bioluminescence.

B1: nnH3H_v2: N. nambi hispidin hydroxylase with D37E, V181I, S323M, and M385K (SEQ ID NO: 6) (protein, listed as Neonothopanus nambi)
chain: MASFENSLSVLIVGAGLGGLAAAIALRRQGHVVKIYESSSFKAELGAGLAVPPNTLRSLQQLGCNTENLNGVDNLCFTAMGYDGSVGMMNNMTDYREAYGTSWIMVHRVDLHNELMRIALDPGGLGPPATLHLNHRVTFCDVDACTVTFTNGTTQSADLIVGADGIRSTIRRFVLEEDVTVPASGIVGFRWLVQADALDPYPELDWIVKKPPLGARLISTPQNPQSGVGLADRRTIIIYACRGGTMVNVLAVHDDERDQNTADWSVPASKDDLFRVFHDYHPRFRRLLELAQDINLWQMRVVPVLKKWVNKRVCLLGDAAHAMLPTLGQGFGMGLEDAVALGTLLPKGTTASQIETRLAVYEQLRKDRAEFVAAESYEEQYVPEKRGLYLRSKELRDRVMGYDIKVESEKVLETLLRSSNSA
[1]
  greater luminescence compared with nnH3H_WT: 2.5 fold
Pichia pastoris GS115; co-expressed with nnLuz_WT, addition of 100 μM hispidin
  bioluminescence relative to cells expressing nnH3H_WT and nnLuz_WT: greater bioluminescence
Pichia pastoris GS115; combined with nnLuz_WT, mcitHispS and NpgA, caffeic acid
  greater luminescence relative to nnH3H_WT: 3.9 fold

B2: nnLuz_v3: N. nambi luciferase with substitutions T99P, T192S, A199P combined (SEQ ID NO: 2) (protein, listed as Neonothopanus nambi)
chain: MRINISLSSLFERLSKLSSRSIAITCGVVLASAIAFPIIRRDYQTFLEVGPSYAPQNFRGYIIVCVLSLFRQEQKGLAIYDRLPEKRRWLADLPFREGPRPSITSHIIQRQRTQLVDQEFATRELIDKVIPRVQARHTDKTFLSTSKFEFHAKAIFLLPSIPINDPLNIPSHDTVRRTKREIAHMHDYHDCSLHLALAPQDGKEVLKKGWGQRHPLAGPGVPGPPTEWTFLYAPRNEEEARVVEMIVEASIGYMTNDPAGKIVENAK
HEK293 cells
  production of bioluminescence relative to parental nnLuz_WT: substantially greater
[2]
  production of bioluminescence relative to parental nnLuz: substantially greater
[3]
  enzyme stability relative to unmodified parental luciferase: greater enzyme stability
